Drawing on patent US20240293544A1 (KIROMIC BIOPHARMA, published 2024), this text covers binding result and EC50 for one molecule.

The target of experiment [1] is T1, Mesothelin (MSLN) Isoform 1, antigen of the ELISA (human, UniProt Q13421 296-598, limits assumed).
T1 construct: also called Mesothelin canonical polypeptide
In words: ELISA.

The target of experiment [2] is T2, Mesothelin Isoform 2 (IsoMSLN), antigen of the ELISA (human, UniProt Q13421 37-598).
T2 construct: also called MSLN Isoform 2; mesothelin isoform-2 polypeptide
T2 sequence (Q13421 37-606 limits assumed, form in doubt): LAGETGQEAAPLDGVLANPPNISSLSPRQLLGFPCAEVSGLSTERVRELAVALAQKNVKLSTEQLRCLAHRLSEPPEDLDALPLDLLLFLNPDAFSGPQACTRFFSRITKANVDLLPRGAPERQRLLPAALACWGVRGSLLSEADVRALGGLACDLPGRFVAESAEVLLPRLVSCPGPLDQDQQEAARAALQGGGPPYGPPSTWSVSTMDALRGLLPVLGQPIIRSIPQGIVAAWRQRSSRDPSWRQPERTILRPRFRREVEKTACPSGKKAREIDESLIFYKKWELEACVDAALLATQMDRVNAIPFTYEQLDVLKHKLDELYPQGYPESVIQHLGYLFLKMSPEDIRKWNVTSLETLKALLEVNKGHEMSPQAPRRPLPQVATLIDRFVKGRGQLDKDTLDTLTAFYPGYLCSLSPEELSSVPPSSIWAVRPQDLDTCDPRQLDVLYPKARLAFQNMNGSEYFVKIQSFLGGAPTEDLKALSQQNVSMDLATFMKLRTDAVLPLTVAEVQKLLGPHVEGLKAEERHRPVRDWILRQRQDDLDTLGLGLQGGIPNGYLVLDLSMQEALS
In words: ELISA.

T1 sequence (Q13421 other isoform, or with tags, fused parts or gaps limits assumed): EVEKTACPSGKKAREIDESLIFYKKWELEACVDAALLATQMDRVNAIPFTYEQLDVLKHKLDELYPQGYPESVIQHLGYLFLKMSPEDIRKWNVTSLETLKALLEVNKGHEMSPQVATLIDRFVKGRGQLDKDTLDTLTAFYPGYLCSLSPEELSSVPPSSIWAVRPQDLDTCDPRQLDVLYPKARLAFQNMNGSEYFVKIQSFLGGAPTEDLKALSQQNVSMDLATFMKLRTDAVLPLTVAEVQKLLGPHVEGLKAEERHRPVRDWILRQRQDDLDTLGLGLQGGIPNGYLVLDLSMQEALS

B1: 1B6 monoclonal antibody (Binding Molecule A) (antibody, V domains shown)
VH: EVKLVESGGGLVKPGGSLKLSCEASGFTFSRYAMSWVRHTPEKRLAWVASITFGGDPYYPDGLKGRFTISRDNTRNILYLQMNSLRSEDTAMYYCVRHESWFAYWGQGTLVTVSA
VL: DVLMTQTPLSLPVSLGEQVSISCRSSQTIVHTDGNIYLEWYLQNPGQSPRLLIYKISNRFSGVPDRFSGSGSGTDFTLKISRVEAEDLGIYYCFQASHVPYTFGGGTKLEIK
notes: also called 1B6 antibody; 1B6 mAb
B1: the binding result in experiment [1] is given as “no binding”. The molecule further came in with a half-maximal effective concentration (EC50) in experiment [2] of 0.073 mg/L.
